{
  "source": "patent US20110059064A1",
  "key": {"[1]": {"biological_target": "T1, human voltage-gated potassium channel Kv1.3, expressed endogenously in human peripheral blood T cells (human), P22001", "T1 sequence (P22001 whole entry)": "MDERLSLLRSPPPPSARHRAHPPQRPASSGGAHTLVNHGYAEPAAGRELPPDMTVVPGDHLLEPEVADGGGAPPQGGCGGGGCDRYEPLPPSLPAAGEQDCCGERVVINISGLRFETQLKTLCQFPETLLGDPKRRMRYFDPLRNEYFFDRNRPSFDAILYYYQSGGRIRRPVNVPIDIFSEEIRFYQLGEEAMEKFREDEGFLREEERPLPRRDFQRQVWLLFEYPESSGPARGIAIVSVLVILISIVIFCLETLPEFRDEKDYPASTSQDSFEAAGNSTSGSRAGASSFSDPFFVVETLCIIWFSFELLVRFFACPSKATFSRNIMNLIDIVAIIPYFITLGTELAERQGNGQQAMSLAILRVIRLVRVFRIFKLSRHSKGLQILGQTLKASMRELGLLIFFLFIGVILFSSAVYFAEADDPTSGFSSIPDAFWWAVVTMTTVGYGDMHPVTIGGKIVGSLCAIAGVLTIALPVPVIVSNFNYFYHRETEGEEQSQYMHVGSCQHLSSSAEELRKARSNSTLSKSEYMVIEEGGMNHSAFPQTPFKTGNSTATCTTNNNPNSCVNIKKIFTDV"}, "[2]": {"biological_target": "T1, human voltage-gated potassium channel …", "remark": "listed apart in the source"}, "[3]": {"biological_target": "EGFP-tagged human IKCa1 Ca2+-activated K channel expressed in Cos-7 cells (human), O15554", "sequence (O15554 whole entry)": "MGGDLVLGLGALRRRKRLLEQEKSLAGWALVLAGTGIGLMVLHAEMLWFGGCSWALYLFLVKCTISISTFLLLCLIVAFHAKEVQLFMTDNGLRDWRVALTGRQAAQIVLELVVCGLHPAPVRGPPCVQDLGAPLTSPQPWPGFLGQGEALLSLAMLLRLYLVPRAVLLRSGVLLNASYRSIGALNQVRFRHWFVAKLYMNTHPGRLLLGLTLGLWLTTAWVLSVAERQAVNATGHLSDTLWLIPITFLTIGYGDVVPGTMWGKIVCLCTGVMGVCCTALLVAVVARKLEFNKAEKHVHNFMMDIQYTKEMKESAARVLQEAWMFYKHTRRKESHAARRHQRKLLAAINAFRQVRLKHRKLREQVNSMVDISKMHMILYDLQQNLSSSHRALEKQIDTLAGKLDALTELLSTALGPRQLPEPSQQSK"}, "[4]": {"biological_target": "human Kv1.2 channel expressed in Cos-7 cells (human), P16389", "sequence (P16389 whole entry)": "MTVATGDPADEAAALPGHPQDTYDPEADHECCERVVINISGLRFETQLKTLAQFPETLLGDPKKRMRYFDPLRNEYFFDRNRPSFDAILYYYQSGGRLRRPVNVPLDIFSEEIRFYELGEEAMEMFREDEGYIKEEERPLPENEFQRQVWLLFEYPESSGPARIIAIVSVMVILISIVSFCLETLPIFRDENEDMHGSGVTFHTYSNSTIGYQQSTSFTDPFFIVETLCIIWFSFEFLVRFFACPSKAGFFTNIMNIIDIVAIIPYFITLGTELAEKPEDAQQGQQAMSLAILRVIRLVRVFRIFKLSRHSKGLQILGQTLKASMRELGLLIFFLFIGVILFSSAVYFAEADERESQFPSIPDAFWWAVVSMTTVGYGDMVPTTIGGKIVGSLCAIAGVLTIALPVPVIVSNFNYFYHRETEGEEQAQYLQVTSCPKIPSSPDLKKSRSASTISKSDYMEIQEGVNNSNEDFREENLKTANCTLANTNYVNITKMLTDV"}, "[5]": {"biological_target": "T2, mouse Kv1.1 channel stably expressed in L929 cells (mouse), P16388", "T2 chain": "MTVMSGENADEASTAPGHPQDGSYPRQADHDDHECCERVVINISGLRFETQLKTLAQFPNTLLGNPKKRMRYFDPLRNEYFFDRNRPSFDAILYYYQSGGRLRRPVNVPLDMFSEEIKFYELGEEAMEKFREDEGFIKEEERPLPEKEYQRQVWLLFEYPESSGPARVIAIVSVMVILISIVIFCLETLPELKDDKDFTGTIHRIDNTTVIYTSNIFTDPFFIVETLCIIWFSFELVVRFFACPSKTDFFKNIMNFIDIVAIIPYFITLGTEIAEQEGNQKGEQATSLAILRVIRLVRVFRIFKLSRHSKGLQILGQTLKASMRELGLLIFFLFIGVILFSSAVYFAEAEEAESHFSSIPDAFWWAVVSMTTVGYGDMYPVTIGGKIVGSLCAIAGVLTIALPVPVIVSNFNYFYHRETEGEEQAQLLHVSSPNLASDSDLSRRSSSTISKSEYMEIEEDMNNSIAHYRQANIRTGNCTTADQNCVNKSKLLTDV"}},
  "data": [
    {"binder": "AAAISCVGSPECPPKCRAQGCKNGKCMNRKCKCYYC (modifications not checked)", "note": "[Vm24 (native peptide purified from the venom of Vaejovis mexicanus smithi)]", "values": [
      {"measurement": "koff", "setting": "[1]", "result": 0.00026, "unit": "s⁻¹"},
      {"measurement": "time constant for washout", "setting": "[1]", "result": 3800, "unit": "s"},
      {"measurement": "Kd", "setting": "[2]", "result": 0.0029, "unit": "nM"},
      {"measurement": "Kd", "setting": "[3]", "result": 14, "unit": "nM"},
      {"measurement": "selectivity for hKv1.3 over hIKCa1 (fold)", "setting": "[3]", "result": "> 4500", "unit": "fold"},
      {"measurement": "Kd", "setting": "[4]", "result": "5 to 10", "unit": "nM"},
      {"measurement": "selectivity for hKv1.3 over hKv1.2 (fold)", "setting": "[4]", "result": "> 1500", "unit": "fold"},
      {"measurement": "Kd", "setting": "[5]", "result": "30 to 40", "unit": "nM"},
      {"measurement": "selectivity for hKv1.3 over mKv1.1 (fold)", "setting": "[5]", "result": "> 10000", "unit": "fold"}
    ]}
  ]
}
